Results: patent US20180171002A1 (BERG, published 2018)

T1: E.Coli-expressed partial FLNA (aa 1443-2131) (human, UniProt P21333 1443-2131)
T1 construct: also called FLNA Partial; partial FLNA protein
T1 sequence: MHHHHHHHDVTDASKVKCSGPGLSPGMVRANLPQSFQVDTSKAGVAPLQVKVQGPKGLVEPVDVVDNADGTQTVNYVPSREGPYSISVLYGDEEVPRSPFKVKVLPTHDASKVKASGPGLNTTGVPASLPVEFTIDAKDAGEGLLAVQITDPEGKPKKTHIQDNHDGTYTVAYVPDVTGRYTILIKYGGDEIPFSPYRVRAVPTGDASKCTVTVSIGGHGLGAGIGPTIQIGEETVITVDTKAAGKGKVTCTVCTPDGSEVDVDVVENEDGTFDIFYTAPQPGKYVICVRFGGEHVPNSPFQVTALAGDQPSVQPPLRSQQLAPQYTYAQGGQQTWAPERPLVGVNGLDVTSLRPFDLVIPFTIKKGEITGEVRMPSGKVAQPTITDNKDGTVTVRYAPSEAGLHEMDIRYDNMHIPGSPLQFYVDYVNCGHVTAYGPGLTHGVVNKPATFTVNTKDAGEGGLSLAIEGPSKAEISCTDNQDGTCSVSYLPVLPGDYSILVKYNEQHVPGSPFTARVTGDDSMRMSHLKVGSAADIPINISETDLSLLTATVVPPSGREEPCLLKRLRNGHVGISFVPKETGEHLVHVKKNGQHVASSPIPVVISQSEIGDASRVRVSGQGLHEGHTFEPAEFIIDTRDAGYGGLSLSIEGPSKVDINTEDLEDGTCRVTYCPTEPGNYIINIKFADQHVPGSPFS

T2: E.Coli-expressed FLNC (aa 1438-2128) (Homo sapiens (Human), UniProt Q14315 1438-2128)
T2 construct: also called Partial filamin C
T2 sequence: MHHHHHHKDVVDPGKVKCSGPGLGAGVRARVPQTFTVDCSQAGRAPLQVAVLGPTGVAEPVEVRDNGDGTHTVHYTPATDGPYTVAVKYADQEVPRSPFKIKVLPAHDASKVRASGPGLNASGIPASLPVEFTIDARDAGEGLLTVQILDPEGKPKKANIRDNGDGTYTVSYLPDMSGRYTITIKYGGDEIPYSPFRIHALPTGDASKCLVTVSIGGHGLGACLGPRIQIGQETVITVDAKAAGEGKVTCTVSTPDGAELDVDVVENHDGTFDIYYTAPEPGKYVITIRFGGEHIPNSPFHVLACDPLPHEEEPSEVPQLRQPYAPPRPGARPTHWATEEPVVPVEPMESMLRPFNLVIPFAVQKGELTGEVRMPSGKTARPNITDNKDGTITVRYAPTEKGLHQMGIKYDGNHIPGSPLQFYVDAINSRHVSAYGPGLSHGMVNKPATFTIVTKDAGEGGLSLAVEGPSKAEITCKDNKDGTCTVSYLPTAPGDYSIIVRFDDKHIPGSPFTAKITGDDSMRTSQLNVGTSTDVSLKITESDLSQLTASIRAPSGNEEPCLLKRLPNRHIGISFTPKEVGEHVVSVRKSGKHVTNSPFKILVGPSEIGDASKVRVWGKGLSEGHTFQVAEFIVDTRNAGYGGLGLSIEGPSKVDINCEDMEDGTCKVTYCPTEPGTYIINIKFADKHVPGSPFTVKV


Assays:
[1] = target: E.Coli-expressed FLNC (aa 1438-2128) (Homo sapiens (Human)) (UniProt Q14315); assay: ELISA, positive control
[2] = target: T3, HEK293-expressed full length FLNA (UniProt: P21333) (human, UniProt P21333 2-2647); assay: ELISA, positive control
T3 construct: Full length protein; also called full length human FLNA protein; Full length filamin A
T3 sequence (P21333 other isoform, or with tags, fused parts or gaps limits assumed): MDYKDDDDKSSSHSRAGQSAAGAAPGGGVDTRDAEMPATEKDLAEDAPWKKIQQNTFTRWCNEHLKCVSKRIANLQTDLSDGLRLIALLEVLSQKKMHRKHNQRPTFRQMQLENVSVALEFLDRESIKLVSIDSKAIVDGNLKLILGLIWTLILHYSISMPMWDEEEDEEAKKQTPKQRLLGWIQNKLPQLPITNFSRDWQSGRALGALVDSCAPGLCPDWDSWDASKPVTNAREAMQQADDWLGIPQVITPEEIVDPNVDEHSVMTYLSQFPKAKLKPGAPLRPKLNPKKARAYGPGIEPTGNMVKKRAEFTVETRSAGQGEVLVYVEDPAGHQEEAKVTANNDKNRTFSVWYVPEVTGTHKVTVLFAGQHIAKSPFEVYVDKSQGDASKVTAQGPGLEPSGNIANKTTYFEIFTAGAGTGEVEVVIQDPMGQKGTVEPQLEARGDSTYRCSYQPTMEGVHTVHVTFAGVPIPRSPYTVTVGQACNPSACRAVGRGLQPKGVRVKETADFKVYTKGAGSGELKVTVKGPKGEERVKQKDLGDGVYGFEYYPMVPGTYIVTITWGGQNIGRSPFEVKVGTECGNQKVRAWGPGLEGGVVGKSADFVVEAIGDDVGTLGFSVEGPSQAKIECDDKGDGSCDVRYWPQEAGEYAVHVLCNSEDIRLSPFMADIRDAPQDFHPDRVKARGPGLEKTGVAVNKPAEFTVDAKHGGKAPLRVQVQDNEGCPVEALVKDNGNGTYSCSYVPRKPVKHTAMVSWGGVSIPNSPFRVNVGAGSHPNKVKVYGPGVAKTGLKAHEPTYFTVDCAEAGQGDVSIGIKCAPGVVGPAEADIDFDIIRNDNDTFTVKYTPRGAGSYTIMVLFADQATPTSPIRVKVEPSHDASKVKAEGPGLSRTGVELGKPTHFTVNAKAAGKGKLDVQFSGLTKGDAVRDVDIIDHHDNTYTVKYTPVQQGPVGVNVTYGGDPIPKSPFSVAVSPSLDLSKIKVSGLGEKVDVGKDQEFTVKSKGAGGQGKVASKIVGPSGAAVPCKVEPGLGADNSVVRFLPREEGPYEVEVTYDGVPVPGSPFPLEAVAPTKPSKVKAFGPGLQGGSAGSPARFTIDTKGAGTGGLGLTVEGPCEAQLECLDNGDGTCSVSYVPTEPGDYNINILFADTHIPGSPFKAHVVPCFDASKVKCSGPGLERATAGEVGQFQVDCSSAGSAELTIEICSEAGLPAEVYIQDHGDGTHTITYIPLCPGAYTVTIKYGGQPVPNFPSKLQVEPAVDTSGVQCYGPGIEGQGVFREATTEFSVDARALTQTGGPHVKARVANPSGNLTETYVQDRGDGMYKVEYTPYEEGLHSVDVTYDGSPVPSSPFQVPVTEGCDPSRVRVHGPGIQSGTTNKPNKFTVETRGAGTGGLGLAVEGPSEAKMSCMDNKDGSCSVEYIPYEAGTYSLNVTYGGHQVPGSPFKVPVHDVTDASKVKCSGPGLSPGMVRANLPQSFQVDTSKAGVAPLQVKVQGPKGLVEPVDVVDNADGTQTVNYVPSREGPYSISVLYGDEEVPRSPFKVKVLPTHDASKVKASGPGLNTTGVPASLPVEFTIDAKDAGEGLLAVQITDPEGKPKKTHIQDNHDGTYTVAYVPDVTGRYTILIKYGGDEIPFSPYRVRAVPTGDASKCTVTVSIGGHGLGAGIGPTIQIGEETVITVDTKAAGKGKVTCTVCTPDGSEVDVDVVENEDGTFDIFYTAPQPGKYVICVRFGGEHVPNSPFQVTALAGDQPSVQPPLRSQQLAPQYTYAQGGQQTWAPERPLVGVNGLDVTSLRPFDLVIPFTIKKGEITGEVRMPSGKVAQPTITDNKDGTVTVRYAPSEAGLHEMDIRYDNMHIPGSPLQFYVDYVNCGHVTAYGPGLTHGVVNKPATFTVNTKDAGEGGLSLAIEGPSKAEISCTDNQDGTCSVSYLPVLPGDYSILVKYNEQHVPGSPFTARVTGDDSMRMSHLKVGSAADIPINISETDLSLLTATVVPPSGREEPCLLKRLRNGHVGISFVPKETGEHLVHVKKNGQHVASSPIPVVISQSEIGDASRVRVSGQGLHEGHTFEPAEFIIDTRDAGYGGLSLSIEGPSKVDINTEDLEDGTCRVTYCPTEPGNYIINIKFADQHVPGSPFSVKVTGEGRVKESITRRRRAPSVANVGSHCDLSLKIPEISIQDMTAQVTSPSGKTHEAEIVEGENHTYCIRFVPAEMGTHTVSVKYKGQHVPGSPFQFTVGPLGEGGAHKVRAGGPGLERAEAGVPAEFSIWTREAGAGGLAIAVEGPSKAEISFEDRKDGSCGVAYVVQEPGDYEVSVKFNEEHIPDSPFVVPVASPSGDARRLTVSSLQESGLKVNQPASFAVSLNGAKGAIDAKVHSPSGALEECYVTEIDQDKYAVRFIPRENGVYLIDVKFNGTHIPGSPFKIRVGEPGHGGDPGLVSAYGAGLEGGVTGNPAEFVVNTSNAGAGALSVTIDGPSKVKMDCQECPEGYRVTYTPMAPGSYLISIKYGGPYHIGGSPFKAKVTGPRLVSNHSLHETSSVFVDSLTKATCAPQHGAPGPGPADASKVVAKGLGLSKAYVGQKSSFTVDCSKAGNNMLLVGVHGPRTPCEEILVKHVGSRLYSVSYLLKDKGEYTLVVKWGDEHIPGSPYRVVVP

[3] = target: E.Coli-expressed partial FLNA (aa 1443-2131) (human) (UniProt P21333); assay: ELISA, positive control
[4] = target: E.Coli-expressed FLNC (aa 1438-2128) (Homo sapiens (Human)) (UniProt Q14315); assay: ELISA, negative control
[5] = target: T3, HEK293-expressed full length FLNA …; assay: ELISA, negative control
[6] = target: E.Coli-expressed partial FLNB (aa 1416-2089) (Homo sapiens (Human)) (UniProt O75369); assay: ELISA, negative control
Chain of E.Coli-expressed partial FLNB (aa 1416-2089) (Homo sapiens (Human)) (O75369 1416-2089, tags left off): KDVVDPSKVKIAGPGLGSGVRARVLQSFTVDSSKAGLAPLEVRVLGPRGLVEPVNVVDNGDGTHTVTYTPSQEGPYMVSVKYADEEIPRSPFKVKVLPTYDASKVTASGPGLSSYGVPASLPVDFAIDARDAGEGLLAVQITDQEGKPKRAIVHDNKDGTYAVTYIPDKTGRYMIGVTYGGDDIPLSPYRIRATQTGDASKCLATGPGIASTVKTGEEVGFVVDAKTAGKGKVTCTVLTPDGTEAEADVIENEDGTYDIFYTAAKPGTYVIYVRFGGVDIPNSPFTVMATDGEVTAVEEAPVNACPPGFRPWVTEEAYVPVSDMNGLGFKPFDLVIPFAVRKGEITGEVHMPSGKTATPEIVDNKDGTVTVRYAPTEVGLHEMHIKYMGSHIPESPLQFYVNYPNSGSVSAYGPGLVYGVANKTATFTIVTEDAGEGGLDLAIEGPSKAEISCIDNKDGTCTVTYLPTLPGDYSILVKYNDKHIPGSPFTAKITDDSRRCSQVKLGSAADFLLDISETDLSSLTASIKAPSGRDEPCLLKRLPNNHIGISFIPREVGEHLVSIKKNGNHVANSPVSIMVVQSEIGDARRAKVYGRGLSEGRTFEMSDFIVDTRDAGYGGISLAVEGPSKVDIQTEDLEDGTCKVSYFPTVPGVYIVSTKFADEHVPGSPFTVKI

[7] = target: E.Coli-expressed partial FLNA (aa 1443-2131) (human) (UniProt P21333); assay: ELISA, negative control
[8] = target: HEK293-expressed full length FLNB (Homo sapiens (Human)) (UniProt O75369); assay: ELISA, negative control
[9] = target: T1, E.Coli-expressed partial FLNA (aa …); assay: BLI (Octet), antibody on AMC anti-mIgG Fc capture sensor, FLNA Partial at 100 nM
Procedure: Kinetics studies with ForteBio Bio-Layer Interferometry (BLI) technology were carried out. BLI is a label-free technology for measuring biomolecular interactions. It is an optical analytical technique that analyzes the interference pattern of white light reflected from two surfaces: a layer of immobilized protein on the biosensor tip, and an internal reference layer. Any change in the number of molecules bound to the biosensor tip causes a shift in the interference pattern that can be measured in real-time. The Octet analysis results are shown as below in Table 3.

[10] = target: T2, E.Coli-expressed FLNC (aa 1438-2128); assay: ELISA, hybridoma supernatant on protein
Procedure: (§1) Next, supernatants from clone 2C12, 3F4, and 6E3 were tested to bind the above proteins by ELISA. FLNA proteins were tested for specificity, while homologous proteins FLNB and FLNC from the same family were tested for cross-reactivity. 10% pooled normal human serum was also included for any unexpected non-specific binding.

[11] = target: T3, HEK293-expressed full length FLNA …; assay: ELISA, hybridoma supernatant on protein
Procedure: as §1

[12] = target: T1, E.Coli-expressed partial FLNA (aa …); assay: ELISA, hybridoma supernatant on protein
Procedure: as §1

Molecule	ELISA test result (signal) [1]	ELISA test result (signal) [2]	ELISA test result (signal) [3]	ELISA test result (signal) [4]	ELISA test result (signal) [5]	ELISA test result (signal) [6]	ELISA test result (signal) [7]	ELISA test result (signal) [8]	Kd [9] [nM]	Response [9]	koff [9] [s⁻¹]	kon [9] [M⁻¹ s⁻¹]	ELISA test result (signal) [10]	ELISA test result (signal) [11]	ELISA test result (signal) [12]
Pos ctl (positive control of the ELISA of Table 2)	1.7	3.09	3.85	–	–	–	–	–	–	–	–	–	–	–	–
Neg ctl (negative control of the ELISA of Table 2)	–	–	–	0.042	0.043	0.069	0.072	0.072	–	–	–	–	–	–	–
anti-FLNA murine monoclonal antibody 2C12 (antibody, IgG1, V domains shown, also called clone 2C12) VH: QVQLKQSGPGLVQPSQSLSITCTVSGFSLTNYGVHWVRQSPGKGLEWLGVIWRGGSTDYNAAFMSRLSITKDNSKSQVFFKMNSLQADDTAIYFCALRGNYVHYYLMDYWGQGTSVTVSS VL: DIQVTQTPSSLSASLGDRVTISCRASQDISNYLNWYQQKPDGTVKLLIYYTSRLHSGVPSRFSGSGSGTDYSLTISNLDQEDIATYFCQQGNTLPPTFGGGTNLEIK	–	–	–	–	–	–	–	–	4.82	0.222	0.000381	79000	0.044	1.87	3.32

Second part, the molecule after the results:

ELISA test result (signal) [1]	ELISA test result (signal) [2]	ELISA test result (signal) [3]	ELISA test result (signal) [4]	ELISA test result (signal) [5]	ELISA test result (signal) [6]	ELISA test result (signal) [7]	ELISA test result (signal) [8]	Kd [9] [nM]	Response [9]	koff [9] [s⁻¹]	kon [9] [M⁻¹ s⁻¹]	ELISA test result (signal) [10]	ELISA test result (signal) [11]	ELISA test result (signal) [12]	Molecule
–	–	–	–	–	–	–	–	0.999	0.283	0.000804	805000	0.042	2.35	3.04	anti-FLNA murine monoclonal antibody 3F4 (antibody, IgG2b, V domains shown, also called clone 3F4) VH: EVQLQESGPGLAKPSQTLSLTCSVTGYSITSNYWNWIRKFPGNKLEYMGYISFSGSTYYNPSLKSRISITRDTSKNQYYLQLNSVTTEDTATYYCARWNYYAMDYWGQGTSVTVSS VL: DFLLTQSPAILSVSPGERVSFSCRASQSIGTNIHWYQQRTNGSPRLLIKFASESISGIPSRFSGSGSGTDFTLTINSVESEDIADYYCQQSNSWPYTFGGGTKLEIK
–	–	–	–	–	–	–	–	4.02	0.33	0.000784	195000	0.041	2.2	2.57	anti-FLNA murine monoclonal antibody 6E3 (antibody, IgG1, V domains shown, also called clone 6E3; mab 6E3) VH: QVQLQQSGAELMKPGASVKLSCKATGYTFTGYWIEWVKQRPGHGLEWIGEILPGNGSTNCNEKFKGKATFTATTSSNTAYMQLSSLTTEDSAIYYCTTVSYWGQGTTLTVSS VL: DVVMTQTPLSLPVSLGDQASISCRSSQSLVHSNGNTYLHWYLQKPGQSPNLLIYKVSNRFSGVPDRFTGSGSGTDFTLKISRVEAEDLGVYFCSQSTHVPFTFGSGTKLEIK
